Measurements from the supplement of paper PMC9170038.

Tested on: K4 kissing-loop RNA reporter
Assay: apparent KD of K4 kissing-loop reporter; higher = weaker reporter binding
Details: Eterna round: R107
Description: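 RNA-MaP round R107: designed RNA switches with theophylline, tryptophan, arginine or FMN aptamers are transcribed on-chip within common flanks. They are titrated with a labelled K4 kissing-loop RNA reporter in RNA-MaP buffer (100 mM Tris pH 7.5, 80 mM KCl, 4 mM MgCl2), without ligand or with the indicated ligand. Median apparent KD per design.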

[1] = input ligand: theophylline 20 uM
[2] = input ligand: tryptophan 2.4 mM
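Note: bound reporter read as fluorescence of individual clusters on recovered sequencing chips by microscopy, with normalized cluster intensities fitted with a binding model.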

| Sequence | apparent KD of K4 kissing-loop reporter (input ligand: FMN 200 uM) [nM] | apparent KD of K4 kissing-loop reporter (input ligand: arginine 13.2 mM) [nM] | apparent KD of K4 kissing-loop reporter (input ligand: none) [nM] | apparent KD of K4 kissing-loop reporter [1] [nM] | apparent KD of K4 kissing-loop reporter [2] [nM] |
| --- | --- | --- | --- | --- | --- |
| CUAUGGAAACAUAGGAAUCGGGAAACCGAUACCAGUAUGGAAACAUACCCUUGGCAGCGGAAUGAUUCAACGGAGUGAUGUUCCG [Theophylline A K4 20] | 395 | 327 | 399 | 293 | 321 |
| CUAUGGAAACAUAGGAGUCGGGAAACCGAUACCAGUAUGGAAACAUACCCUUGGCAGCGGAAUGAUUCAACGGAGUGAUGUUCCG [Theophylline A K4 19] | 458 | 366 | 400 | 322 | 366 |
| CUCAGAAAGACUGUCCAAGUGAUGUUUGGACGAGGACCGGUACGGCCGCCACUCGCUGUUGCGAAUGUUAAGGUACGAGUCGCGG [theeternabot_exclusion_KL_Trp_A_30] | 84.8 | 89.7 | 89.1 | 101 | 91.7 |
| CUCGAGUGAUGUUCGAUUAUUUAUACAGAUACCAGUGAAUUUUAACACCCUUGGCAGCUGGUAGUAUCUUUGUAAUUUUAACUAG [JR_ExcTheophyA_Sub003] | 133 | 181 | 147 | 176 | 111 |
| CUGACCAACAGCGAUACCAGCGUGGAGUGAUGUUCCCUGGUCCGGGCUGAUGUUCCCUUGCGCCCUUGGCAGCGCAGAAGCAGGA [Exclusion Theophylline B GF 12] | 296 | 263 | 351 | 303 | 281 |
| CUGAGCCUGACGCAAGUCAGGCUCUGCGAGCGAGGACCGGUACGGCCGCCACUCGGUGCAGUGAUGUUGCAUGGCCGCAAGGCCG [#2 Exclusion - Tryptophan A Attempt #21 (HarryS)] | 254 | 215 | 274 | 218 | 306 |
| CUUAAGGAGUGUCGUGCCGGACACUGGGAAGGAGCGCAAUUCUUUGCAGGUAGGUCGCCCAGUGAUGUUGGGUGGCGCUGUCGAA [Laatonbi] | 190 | 156 | 149 | 156 | 128 |
| CUUCGUAAGGGCCCAGUGAUGUUGGGCACUCGAGGACCGGUACGGCCGCCACUCGCUCCCUAAGUCGCGCGCGUGGGCCACCGCC [Rezariatra] | 128 | 111 | 116 | 102 | 139 |
| CUUGAUGGAAACAUCGAGUAGAUUACUGAUACCAGUAUCGAUAGAUACCCUUGGCAGCAGAAUCAGUAAUCACGAGUGAUGUUCG [Ex Theophylline A K4 7] | 535 | 528 | 555 | 518 | 485 |
| GAACCAGAGGUUGCUGCGGGUUCCAGAGAUACCAGCCGUAUUGAAGGCCCUUGGCAGCUCGAGUGAUGUUCGAGCCGCCUCUGGC [Antius] | 118 | 96.8 | 120 | 103 | 103 |
| GAAGUACAGGCGGCCGCCACUAGUGAUGUUAGUGAUAAAAGAUAAAGUAUAUAUCGGCAUGUAGAUAGGACCGGGCCUGAUGGAG [uiiumullin] | 118 | 296 | 186 | 203 | 298 |
| GAGGUACAGGCGGCCGCCACUAGUGAUGUUAGUGAUAGAAGAUAUAGUAAAUAUCGGCAUGUAGAUAGGACCGGGCCUGGUGGAG [vvgtcmullin] | 291 | 234 | 288 | 327 | 287 |
| GAGUGGCAGACGGCCGCCACUCUUAGCAGCCAGCGGAGUGAUGUUCCGCCCGAGUGAUGUUCGGAGAGGACCGGGUUUGUUGUAA [Exclusion Tryptophan B GF 29] | 119 | 146 | 146 | 149 | 125 |
| GAUAUAGUGAUGUUAUAUACUGAUAGACAACGAGGACCGGUACGGCCGCCACUCGAGAGGGUGAAAUUAAUGAUAAAAUAAUAAU [ExyTryA#2] | 322 | 351 | 356 | 307 | 270 |
| GAUUCAGUGAUGUUGGAAGGCGAGCGGGAUACCAGCCGAGACUCAGGCCCUUGGCAGCCCACAUAUCCCAGGUAGAUAGUCGAUC [Same State - Theophylline A (Freestyle 9)] | 185 | 118 | 170 | 165 | 160 |
| GAUUCUGUUCGAAAGAACGGAAUCACGGAAGGAGCGAGAGAAAUCUCAGGUAGGUCGCCGAAUUUUUGAUAGUGAUGUUAUCAUU [Arginine A K4 2] | 422 | 353 | 388 | 408 | 426 |
| GAUUUAGAGGCGGCCGCCACUAGUGAUGUUAGUGAUGUUUGAUACUGAAUAUAUCUGCGUUUAGAUAGGACCGGGCCAGAUGGAG [qzwqmullin] | 234 | 164 | 181 | 193 | 177 |
| GCAGACACGCAGUGAUGUUGCGAAACGGAAGGAGCGCGUGAAAACGCAGGUAGGUCGCCGAAACAUAAAUUAUAAUUUUGUUUGC [Arginine A K4 13] | 244 | 194 | 221 | 240 | 177 |
| GCAGUCAAUCGACCACGAAAGUGGAUGGAUACCAGAGUCGAAAGACUCCCUUGGCAGCCAGUGAUGUUGGAAGACUGCAAUAAAA [#SwitchBubble 16 #K4Late] | 1120 | 357 | 622 | 479 | 468 |
| GCAGUGAUGUUGCGCAUGUACAGUGGAGUGCGAGGACCGGUACGGCCGCCACUCGUACAGAACAAGCUAAUAUAUGGAUAGGUGA [IX] | 418 | 525 | 543 | 510 | 306 |
| GCAGUGAUGUUGCGGAUGUACAGUGGCGUGCGAGGACCGGUACGGCCGCCACUCGUACAGCACAAGCUAAUACAUCGAUAGGUGA [whbob_SS_Tryp_A_m2] | 566 | 287 | 357 | 380 | 430 |
| GCAGUGAUGUUGCGGAUGUACAGUGGGAUACGAGGACCGGUACGGCCGCCACUCGUACAGAACAAGCUAAUACAUCGAUAGGUGA [XII] | 265 | 281 | 339 | 373 | 301 |

| Sequence | apparent KD of K4 kissing-loop reporter (input ligand: FMN 200 uM) [nM] | apparent KD of K4 kissing-loop reporter (input ligand: arginine 13.2 mM) [nM] | apparent KD of K4 kissing-loop reporter (input ligand: none) [nM] | apparent KD of K4 kissing-loop reporter [1] [nM] | apparent KD of K4 kissing-loop reporter [2] [nM] |
| --- | --- | --- | --- | --- | --- |
| GCAGUGAUGUUGCUGAUGUGCAGUGGUAGUCGAGGACCGGUACGGCCGCCACUCGGUGAGAAUUUGCUAAUACAUCGAUAAGUGA [XVII] | 1210 | 614 | 1280 | 858 | 904 |
| GCAUCCAUGGCAGGAUAUAGGUUCGUGGAGUGAUGUUCCAUAACCCGAGUGAUGUUCGUUAUCCACCUAGAAGGGCCAUGGAUGC [whbob_Ex_FMNB__2th211] | 212 | 204 | 218 | 215 | 184 |
| GCAUGCAUGGCAGGAUAUAAUCUGGAGUGAUGUUCCUUUAACCUUUCGAACGGCGAGCCAGGUUGAUUAGAAGGGCCAUGCAUGC | 435 | 476 | 622 | 628 | 530 |
| GCCAGUGAUGUUGGCAUUUCGAGCCAUGAAGGAGCGCACGGAAGUGCAGGUAGGUCGCAUGGUACUUAAGAUAUUAUCCUAAGUA [Atceis] | 210 | 162 | 192 | 177 | 129 |
| GCCAUCAGGUCGCAAGACCUGAUAGCCGAUACCAGCGCGAAGGUGCGCCCUUGGCAGCGGCACCGAGUGAUGUUCGGUCAGGCGG [#2 Same State - Theophylline A Attempt #3 (HarryS)] | 490 | 490 | 595 | 291 | 554 |
| GCCGUACGCAUGGAUACCAGCAACCCUGCCAUCCCAGUGAUGUUGGGAGGAACAUUCUCAUGCCCUUGGCAGCCAUGCGUACGGC | 534 | 358 | 473 | 384 | 459 |
| GCCGUACGCAUGGAUACCAGUCUUAGAGUGAUGUUCUAUACGAUUGCGCCUGGAUCAAUGGACCCUUGGCAGCCAUGCGUACGGC | 144 | 112 | 123 | 114 | 124 |
| GCCGUAGAUGGAAGGAGCGAGUCCAAACCAUAUUGCUGAAAAUUCGAGUGAUGUUCGUAAGCUCAGGUAGGUCGCCAUCUACGGC | 206 | 184 | 209 | 161 | 187 |
| GCCGUAGAUUGAAGGAGCGGGAUAGAGAAAGUGAUGUUUUCUCUUUGACGGCGUCCUCGAUCCCAGGUAGGUCGCAAUCUACGGC | 76.1 | 75.2 | 81.2 | 73.5 | 70.2 |
| GCCGUAGAUUGAAGGAGCGUUCUUCAGCAAACUUGCAGUGAUGUUGCAUUAAACAUGUAAGAACAGGUAGGUCGCAAUCUACGGC | 145 | 138 | 155 | 129 | 121 |
| GCCUAGCAGGGAAGGAGCGCCAUAUAAUUAAAAGUUAAUUAAUGAGUGAUGUUCAAAUAAUGGCAGGUAGGUCGCCCUGCUAGGC [KL-SSArg B9] | 378 | 289 | 329 | 316 | 323 |
| GCCUAGCAGGGAAGGAGCGGCAUAAGCAUAGAUAAUAUGCAGUUAGUGAUGUUAAUACUAUGCCAGGUAGGUCGCCCUGCUAGGC [KL-SSArg B7] | 752 | 457 | 688 | 623 | 537 |
| GCCUAGCAGGGAAGGAGCGGCAUAGGCAUAGAUAAUAUGCAGUUAGUGAUGUUAACACUAUGCCAGGUAGGUCGCCCUGCUAGGC [KL-SSArg B8] | 201 | 95.4 | 192 | 120 | 125 |
| GCCUGGGCACGAAGGAGCGCCGUGACAGGUUACUGCAUUGGGCAGUGAUGUUGCUCAAUCUGGCAGGUAGGUCGCGUGCCCAGGC | 106 | 114 | 110 | 120 | 113 |
| GCCUUAUAUCCAGCUACAGCUCUUUUUGGUCGAGGACCGGUACGGCCGCCACUCGAAUGAUAGUGAUGUUAUCGUUUUGUACUAA [JR_Nu_ExcTryptoA_Sub024] | 97.9 | 112 | 108 | 101 | 54.7 |
| GCCUUAUAUCGAGCUACAGCUCGAUUUGGUCGAGGACCGGUACGGCCGCCACUCGAAUGAUAGUGAUGUUAUCAUUAUGGCCUAA [JR_ExcTryptoA_Sub022] | 185 | 137 | 183 | 130 | 148 |
| GCGAACAUUCGCAGUGAUGUUGCGACGGAAGGAGCGCGUGAAAACGCAGGUAGGUCGCCGACAAAAUUAAUUUUAAUGUGUUCGC [Arginine A K4 27] | 373 | 440 | 488 | 471 | 315 |
| GCGGACAUUCGCAGUGAUGUUGCGACGGAAGGAGCGCGUGAAAACGCAGGUAGGUCGCCGACAAAAUUAAUUUUAAUGUGUUCGC [Arginine A K4 30] | 362 | 387 | 394 | 415 | 306 |
| GCGGGCCAGACGGCCGCCACUCCGGGCAGUGAUGUUGCGAAAAUUCUACUAGAGUGAUGUUCUACGAGGACCGGGUCGGAACGCG [Exclusion Tryptophan B Gf 12] | 370 | 476 | 538 | 495 | 257 |
| GCGGGCCCGGGAGGAUAUGAGUCGAGUGAUGUUCGGCGGUCCAUGCCGUUGCGGCGUUAAGCCCUUUUAGAAGGCCCGGGCCCGC [#2 Exclusion - FMN B Attempt #2 (HarryS)] | 208 | 137 | 161 | 138 | 184 |
| GCUAUGGUAGGAAGGAGCGCUGCGUUGUUUUUACGAGUGAUGUUCGGAAGCGGCGUGUUAAAGCAGGUAGGUCGCCUACUAUAGC [Arginine B K4 24] | 162 | 135 | 184 | 172 | 154 |
| GCUCAGGAGUGAUGUUCCAAGUGAUGUUAACGAGGACCGGUACGGCCGCCACUCGAUACGGCCGGACCGUAGGAUAAACUAGAGC [Same State - Tryptophan A (Freestyle 9)] | 200 | 171 | 183 | 313 | 244 |
